Assay results published in US20020048584A1, “Method of treating residual HIV-I disease” (priority 2000, published 2002).

Legend:
[1] = Safety and tolerability of IL-2 and OKT3 stimulation therapy with hydroxyurea and ddI intensification in patients on HAART; format: in vivo, human
Description: Treatments with OKT3 and IL-2 are initiated with a physician present during a four to five day admission to the Bone Marrow Transplant Unit. The first dose of IL-2 is given 24 hours after infusion of OKT3, and continued for a total of fourteen days. After 72 hours, if the patient has no or mild adverse side-effects, then the patient can be discharged and followed in the Infectious Disease Clinic as an out-patient, continuing IL-2 administration at home. […] Of note, further treatments with OKT3 may not be possible due to the potential production of human anti-murine antibodies ([…]., et al., Transplant Rev. 5: 181-199, 1991). […] The NIAID standardized toxicity grading system will be utilized (Table 3). Toxicity is graded on a 1 to 4 scale. When toxicity is encountered the dose administered to subjects is modified. […] Level 2 dose reduction will include discontinuation from the study. For hydroxyurea, Level 1 dose reduction will be to 800 mg qday (400 mg po BID).

[2] = tested on: CD4+ T-lymphocytes; conditions: cited from earlier work
[3] = tested on: T-lymphocytes; conditions: solid organ transplant subjects; cited from earlier work
[4] = OKT3 over 5 to 15 minutes on first day, followed by IL-2; cited from earlier work
[5] = in vivo; cited from earlier work

With `O=c1[nH]cnc2c1ncn2[C@H]1CC[C@@H](CO)O1` [ddI, didanosine, reference compound] as the compound, how does the serious adverse side-effects ([1]; patient #28, entire trial) read?
Its serious adverse side-effects is “did not have serious adverse side-effects”.

With `NC(=O)NO` [hydroxyurea, reference compound] as the compound, how does the serious adverse side-effects ([1]; patient #28, entire trial) read?
The serious adverse side-effects was “did not have serious adverse side-effects”.

What does the source list for “IL-2: cytokine, 15,300 daltons, produced via recombinant DNA technology using genetically-engineered E. coli (Proleukin; Chiron)”?
serious adverse side-effects ([1]; human, in vivo): did not have serious adverse side-effects; increase in CD4+ T-lymphocytes ([2]; intravenous 18×10^6 IU per day, five-day treatments every two months, 6 cycles, baseline CD4+ greater than 200 cells/mm^3): approximately 400 cells per mm3; CD4+ T-lymphocyte count, mean value after treatment ([2]; subcutaneous, 5 day courses every 8 weeks for 6 cycles, starting 7.5×10^6 IU bid, mean 355 at entry): 739

With “OKT3: purified murine monoclonal antibody (IgG2a) directed to the CD3 antigen of human T-lymphocytic cells” as the compound, how does the “time to return of T-cell function to baseline levels after termination” value [3] read?
The value was “one”.

What about the “maximum tolerated dose (MTD)” value [4] of the same compound?
The value was 400 μg/m^2.

And the serious adverse side-effects ([1]; human, in vivo)?
The serious adverse side-effects was “did not have serious adverse side-effects”.

What about the “chest pain, patients” value [5] of the same compound?
Its value is 14%.

What about the “dyspnea, patients” value [5] of the same compound?
The value was 21%.

What about the “headache, patients” value [5] of the same compound?
Its value is 11%.

And the “hypertension, patients” value [5]?
Its value is 8%.

What about the “nausea, patients” value [5] of the same compound?
The value was 19%.

What about the “rigor, patients” value [5] of the same compound?
Its value is 8%.

And the “tachycardia, patients” value [5]?
The value was 10%.

And the “tremor, patients” value [5]?
Its value is 13%.

And the “vomiting, patients” value [5]?
The value was 19%.

And the “wheezing, patients” value [5]?
The value was 13%.
